For 61 molecules, peptide exchange yield results are on record in patent US11352401.

The target of experiment [1] is T1, HLA-B*44 (human).
T1 construct: MHC monomer made peptide-receptive by UV cleavage of a UV-sensitive ligand; also called peptide-receptive MHC class I monomer
Description: UV peptide-exchange ELISA; +++ = yield >50%. The text has this:
Candidate peptides for T cell based therapies according to the present invention were further tested for their MHC binding capacity (affinity). The individual peptide-MHC complexes were produced by UV-ligand exchange, where a UV-sensitive peptide is cleaved upon UV-irradiation, and exchanged with the peptide of interest as analyzed. Only peptide candidates that can effectively bind and stabilize the peptide-receptive MHC molecules prevent dissociation of the MHC complexes. To determine the yield of the exchange reaction, an ELISA was performed based on the detection of the light chain (β2m) of stabilized MHC complexes. The assay was performed as generally described in Rodenko et al. (Rodenko et al., 2006).
96 well MAXISorp plates (NUNC) were coated over night with 2 ug/ml streptavidin in PBS at room temperature, washed 4× and blocked for 1 h at 37° C. in 2% BSA containing blocking buffer. […] Peptide-MHC monomers of the UV-exchange reaction were diluted 100-fold in blocking buffer. Samples were incubated for 1 h at 37° C., washed four times, incubated with 2 ug/ml HRP conjugated anti-β2m for 1h at 37° C., washed again and detected with TMB solution that is stopped with […]. Absorption was measured at 450 nm.
For orientation: In an ELISA, binding on a coated surface is turned into a signal by an enzyme label.

The target of experiment [2] is T2, HLA-A*02 (human).
T2 construct: MHC monomer made peptide-receptive by UV cleavage of a UV-sensitive ligand; also called peptide-receptive MHC class I monomer
Description: UV peptide-exchange ELISA; ++++ = yield >75%.

For experiment [3], the target named is T3, HLA-A*03 (human).
T3 construct: MHC monomer made peptide-receptive by UV cleavage of a UV-sensitive ligand; also called peptide-receptive MHC class I monomer
Description: UV peptide-exchange ELISA; ++++ = yield >75%.

Where only a bound is given, the exact number is not on record here.

B1: AEQDMRELTY (SEQ ID NO: 349) (peptide)
peptide: AEQDMRELTY
Take B1: in experiment [1], the peptide exchange yield was in the range of 50 to 75%.

B2: TEDPTILRI (SEQ ID NO: 354) (peptide)
peptide: TEDPTILRI
B2 registered a peptide exchange yield in experiment [1] of 50 to 75%.

B3: GEVHPSEMI (SEQ ID NO: 367) (peptide)
peptide: GEVHPSEMI
As for B3, the peptide exchange yield in experiment [1] lay in the range of 50 to 75%.

B4: FSIPEGALVAV (SEQ ID NO: 388) (peptide)
peptide: FSIPEGALVAV
Take B4: the peptide exchange yield in experiment [2] was over 75%.

B5: RSFNGLLTMY (SEQ ID NO: 207) (peptide)
peptide: RSFNGLLTMY
With B5, the peptide exchange yield in experiment [3] is over 75%.

B6: QEMQHFLGL (SEQ ID NO: 326) (peptide)
peptide: QEMQHFLGL
The molecule B6 returned a peptide exchange yield in experiment [1] of 50 to 75%.

B7: AETPIQNVI (SEQ ID NO: 364) (peptide)
peptide: AETPIQNVI
B7 came in with a peptide exchange yield in experiment [1] of 50 to 75%.

B8: KLAELEGALQK (SEQ ID NO: 202) (peptide)
peptide: KLAELEGALQK
In experiment [3], B8 displayed a peptide exchange yield of over 75%.

B9: AEVPTGVII (SEQ ID NO: 360) (peptide)
peptide: AEVPTGVII
For the molecule B9, the peptide exchange yield in experiment [1] lay in the range of 50 to 75%.

B10: ALNPYQYQY (SEQ ID NO: 347) (peptide)
peptide: ALNPYQYQY
For B10, the peptide exchange yield in experiment [1] is 50 to 75%.

B11: NEHPSNNW (SEQ ID NO: 329) (peptide)
peptide: NEHPSNNW
Molecule B11 yielded a peptide exchange yield in experiment [1] of 50 to 75%.

B12: GLASRILDAK (SEQ ID NO: 208) (peptide)
peptide: GLASRILDAK
In turn, B12 gave a peptide exchange yield in experiment [3] of over 75%.

B13: EEATGQFHVY (SEQ ID NO: 344) (peptide)
peptide: EEATGQFHVY
In experiment [1], B13 showed a peptide exchange yield of 50 to 75%.

B14: AVFDKFIRY (SEQ ID NO: 204) (peptide)
peptide: AVFDKFIRY
Take B14: the peptide exchange yield in experiment [3] was over 75%.

B15: ATSGVPVYK (SEQ ID NO: 210) (peptide)
peptide: ATSGVPVYK
Turning to B15, the peptide exchange yield in experiment [3] is over 75%.

B16: SEFMQVIF (SEQ ID NO: 323) (peptide)
peptide: SEFMQVIF
Regarding B16, the peptide exchange yield in experiment [1] lay within 50 to 75%.

B17: KLIDLSQVMY (SEQ ID NO: 206) (peptide)
peptide: KLIDLSQVMY
As for B17, the peptide exchange yield in experiment [3] was over 75%.

B18: GECDVFKEIL (SEQ ID NO: 350) (peptide)
peptide: GECDVFKEIL
In experiment [1], B18 displayed a peptide exchange yield of 50 to 75%.

B19: MEMQKSPVF (SEQ ID NO: 373) (peptide)
peptide: MEMQKSPVF
Take B19: the peptide exchange yield in experiment [1] fell in the range of 50 to 75%.

B20: LLKEFVQRV (SEQ ID NO: 131) (peptide)
peptide: LLKEFVQRV
Take B20: in experiment [2], the peptide exchange yield is over 75%.

B21: NLWGGQGLLGV (SEQ ID NO: 130) (peptide)
peptide: NLWGGQGLLGV
In experiment [2], B21 registered a peptide exchange yield of over 75%.

B22: TEREWADEW (SEQ ID NO: 482) (peptide)
peptide: TEREWADEW
B22 came in with a peptide exchange yield in experiment [1] of 50 to 75%.

B23: EDAQGHIW (SEQ ID NO: 331) (peptide)
peptide: EDAQGHIW
B23 had a peptide exchange yield in experiment [1] of 50 to 75%.

B24: KEGDLGGKQW (SEQ ID NO: 330) (peptide)
peptide: KEGDLGGKQW
For the molecule B24, the peptide exchange yield in experiment [1] was in the range of 50 to 75%.

B25: SLDGAARPK (SEQ ID NO: 205) (peptide)
peptide: SLDGAARPK
In experiment [3], B25 returned a peptide exchange yield of over 75%.

B26: EEIEGKGSFTYF (SEQ ID NO: 341) (peptide)
peptide: EEIEGKGSFTYF
With B26, in experiment [1], the peptide exchange yield lay within 50 to 75%.

B27: AEIQPQTQV (SEQ ID NO: 479) (peptide)
peptide: AEIQPQTQV
For B27, in experiment [1], the peptide exchange yield lay within 50 to 75%.

B28: HEFSSPSHL (SEQ ID NO: 342) (peptide)
peptide: HEFSSPSHL
The molecule B28 came in with a peptide exchange yield in experiment [1] of 50 to 75%.

B29: ILLPYLQTL (SEQ ID NO: 393) (peptide)
peptide: ILLPYLQTL
In the case of B29, the peptide exchange yield in experiment [2] is over 75%.

B30: RTQIPMSEK (SEQ ID NO: 209) (peptide)
peptide: RTQIPMSEK
The molecule B30 came in with a peptide exchange yield in experiment [3] of over 75%.

B31: SEDDPILQI (SEQ ID NO: 486) (peptide)
peptide: SEDDPILQI
On to B31, for which, in experiment [1], the peptide exchange yield fell in the range of 50 to 75%.

B32: TDSIHAWTF (SEQ ID NO: 324) (peptide)
peptide: TDSIHAWTF
B32: the peptide exchange yield in experiment [1] is 50 to 75%.

B33: TLMEQPLTTL (SEQ ID NO: 389) (peptide)
peptide: TLMEQPLTTL
As to B33, the peptide exchange yield in experiment [2] is over 75%.

B34: FLSTVTSV (SEQ ID NO: 126) (peptide)
peptide: FLSTVTSV
Turning to B34, the peptide exchange yield in experiment [2] is over 75%.

B35: VLYDKDAVYV (SEQ ID NO: 129) (peptide)
peptide: VLYDKDAVYV
In turn, B35 gave a peptide exchange yield in experiment [2] of over 75%.

B36: VLQPFLPSI (SEQ ID NO: 125) (peptide)
peptide: VLQPFLPSI
In turn, B36 gave a peptide exchange yield in experiment [2] of over 75%.

B37: RELQHEHSL (SEQ ID NO: 481) (peptide)
peptide: RELQHEHSL
B37 displayed a peptide exchange yield in experiment [1] of 50 to 75%.

B38: KVKDTPGLGK (SEQ ID NO: 203) (peptide)
peptide: KVKDTPGLGK
Turning to B38, the peptide exchange yield in experiment [3] was over 75%.

B39: AEIQGNINHV (SEQ ID NO: 348) (peptide)
peptide: AEIQGNINHV
On to B39, for which the peptide exchange yield in experiment [1] was 50 to 75%.

B40: SEKGVIQVY (SEQ ID NO: 362) (peptide)
peptide: SEKGVIQVY
As to B40, the peptide exchange yield in experiment [1] is 50 to 75%.

B41: SEIEQEIGSL (SEQ ID NO: 478) (peptide)
peptide: SEIEQEIGSL
For B41, the peptide exchange yield in experiment [1] lay within 50 to 75%.

B42: SEIEDSTKQVF (SEQ ID NO: 485) (peptide)
peptide: SEIEDSTKQVF
B42 had a peptide exchange yield in experiment [1] of 50 to 75%.

B43: EEGRVYLF (SEQ ID NO: 356) (peptide)
peptide: EEGRVYLF
On to B43, for which the peptide exchange yield in experiment [1] was in the range of 50 to 75%.

B44: EEIERFFKL (SEQ ID NO: 369) (peptide)
peptide: EEIERFFKL
In experiment [1], B44 came in with a peptide exchange yield of 50 to 75%.

B45: QENSYQSRL (SEQ ID NO: 477) (peptide)
peptide: QENSYQSRL
The molecule B45 displayed a peptide exchange yield in experiment [1] of 50 to 75%.

B46: AEDQLHHSF (SEQ ID NO: 487) (peptide)
peptide: AEDQLHHSF
B46 yielded a peptide exchange yield in experiment [1] of 50 to 75%.

B47: ALWLVDPLTV (SEQ ID NO: 132) (peptide)
peptide: ALWLVDPLTV
B47: the peptide exchange yield in experiment [2] was over 75%.

B48: MTLPVDAVISV (SEQ ID NO: 133) (peptide)
peptide: MTLPVDAVISV
Turning to B48, the peptide exchange yield in experiment [2] was over 75%.

B49: AEMLESVIKNY (SEQ ID NO: 321) (peptide)
peptide: AEMLESVIKNY
On to B49, for which the peptide exchange yield in experiment [1] is 50 to 75%.

B50: HIMPTVHTV (SEQ ID NO: 390) (peptide)
peptide: HIMPTVHTV
Molecule B50 came in with a peptide exchange yield in experiment [2] of over 75%.

B51: SLFKDQMEL (SEQ ID NO: 392) (peptide)
peptide: SLFKDQMEL
In the case of B51, in experiment [2], the peptide exchange yield was over 75%.

B52: EENDQSTHKW (SEQ ID NO: 483) (peptide)
peptide: EENDQSTHKW
B52 returned a peptide exchange yield in experiment [1] of 50 to 75%.

B53: GLDGSLVFL (SEQ ID NO: 127) (peptide)
peptide: GLDGSLVFL
On to B53, for which the peptide exchange yield in experiment [2] is over 75%.

B54: SLIDMRGIETV (SEQ ID NO: 391) (peptide)
peptide: SLIDMRGIETV
In experiment [2], B54 had a peptide exchange yield of over 75%.

B55: SEGSEPALLHSW (SEQ ID NO: 338) (peptide)
peptide: SEGSEPALLHSW
B55 yielded a peptide exchange yield in experiment [1] of 50 to 75%.

B56: RELENCFQIQ (SEQ ID NO: 357) (peptide)
peptide: RELENCFQIQ
Take B56: the peptide exchange yield in experiment [1] was in the range of 50 to 75%.

B57: AELDKLTSV (SEQ ID NO: 363) (peptide)
peptide: AELDKLTSV
On to B57, for which the peptide exchange yield in experiment [1] lay within 50 to 75%.

B58: YEIEARNQVF (SEQ ID NO: 327) (peptide)
peptide: YEIEARNQVF
In experiment [1], B58 had a peptide exchange yield of 50 to 75%.

B59: AETLSTIQI (SEQ ID NO: 333) (peptide)
peptide: AETLSTIQI
B59 yielded a peptide exchange yield in experiment [1] of 50 to 75%.

B60: FLGTTPTL (SEQ ID NO: 128) (peptide)
peptide: FLGTTPTL
In experiment [2], B60 returned a peptide exchange yield of over 75%.

B61: EEVNYINTF (SEQ ID NO: 351) (peptide)
peptide: EEVNYINTF
On to B61, for which, in experiment [1], the peptide exchange yield lay in the range of 50 to 75%.
